This test deals with full-length 3xflag-LRRK1 (leucine-rich repeat kinase 1) (human) (UniProt Q38SD2). Nature of the test: cryo-EM structure; single particle cryo-EM of purified 3xflag-LRRK1 eluted in Tris buffer at pH 7.4 with 0.02% Triton X-100; thin carbon film on Quantifoil grids; EMAN2 2D classes and 3D reconstruction.

One substance from publication PMC5561129 can be followed below.

For “full-length 3xflag-LRRK1 (leucine-rich repeat kinase 1), Q38SD2 1-2015”, the stoichiometry N is 2.
